The values below come from article PMC6114919.

The test system of data set [1] is WT p55 (Pol gamma accessory subunit) (human). Nature of the data set: EMSA. To be noted: EMSA in triplicate as previously described (ref 22); buffer, salt, pH and temperature not given in the material. On the technique in general: A gel shift assay detects complexes by their altered migration in electrophoresis.
For another data set, the system named is R182W p55 (human). In words: EMSA. To be noted: EMSA in triplicate as previously described (ref 22); buffer, salt, pH and temperature not given in the material.
Data set [2] concerns the target Exonuclease-deficient (Exo-) p140 catalytic subunit of DNA polymerase gamma (POLG) (human) (UniProt P54098). Nature of the data set: DNA polymerase activity titration (formation of active holoenzyme); holoenzymes preassembled on ice in EDB (50 mM Tris-HCl pH 7.5, 10% glycerol, 1 mM EDTA, 1 mM 2-ME, 100 mM KCl, 0.005% NP-40) with constant 2.5 nM p140 and 0-25 nM p55; activity on poly(rA)•oligo(dT)12-18 at 220 mM NaCl, 37°C, 9 min; apparent Kd from activity against the concentration of p55 dimer.

The next data set deals with p55 (Homo sapiens) (UniProt Q9UHN1). To be noted: cited from earlier work.

p55, sequence (Q9UHN1 2-485): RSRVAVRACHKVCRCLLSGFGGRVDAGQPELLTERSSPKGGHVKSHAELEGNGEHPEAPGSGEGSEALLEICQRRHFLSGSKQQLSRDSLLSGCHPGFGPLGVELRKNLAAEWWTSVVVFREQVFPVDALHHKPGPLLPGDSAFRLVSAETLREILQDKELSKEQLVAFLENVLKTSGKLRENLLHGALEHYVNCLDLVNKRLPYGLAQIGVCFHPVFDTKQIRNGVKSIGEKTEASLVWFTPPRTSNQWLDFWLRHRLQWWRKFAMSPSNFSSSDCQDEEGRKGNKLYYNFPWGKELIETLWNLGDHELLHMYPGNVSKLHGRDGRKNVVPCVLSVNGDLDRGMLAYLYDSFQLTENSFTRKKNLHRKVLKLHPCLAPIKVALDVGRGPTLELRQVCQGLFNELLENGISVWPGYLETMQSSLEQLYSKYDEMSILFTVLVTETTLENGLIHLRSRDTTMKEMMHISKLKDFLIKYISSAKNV

For “47-nucleotide double-stranded DNA oligomer”, the Kd in data set [1] was determined as 89.6 nM; in the data set on R182W p55 (human), 84.2 nM.

On to “R182W p55 accessory subunit of DNA polymerase gamma (POLG2 Chr17: 62492543G>A) (natural protein)”, for which, in data set [2], the Kd turned out to be 0.11 nM.

For “Wild-type p55 accessory subunit of DNA polymerase gamma (POLG2) (natural protein)”, the Kd in data set [2] turned out to be 0.35 nM.

With p55 (from UniProt Q9UHN1), in the data set with p55 (Homo sapiens), the Kd was less than 0.1 nM.
